Source: patent US20240417484A1, “ANTIGEN-BINDING POLYPEPTIDES AGAINST CD73” (UNIVERSITÄTSKLINIKUM HAMBURG-EPPENDORF, priority 2021, published 2024)

Assays:
[1] = target: T1, recombinant human CD73 ectodomain (aa 27-549) with C-terminal His6x tag (human, UniProt P21589 27-549); assay: BLI (Octet), immobilized Nb-rbIgG hcAb, soluble human CD73 as analyte
T1 construct: also called soluble recombinant human CD73; soluble human CD73
T1 sequence: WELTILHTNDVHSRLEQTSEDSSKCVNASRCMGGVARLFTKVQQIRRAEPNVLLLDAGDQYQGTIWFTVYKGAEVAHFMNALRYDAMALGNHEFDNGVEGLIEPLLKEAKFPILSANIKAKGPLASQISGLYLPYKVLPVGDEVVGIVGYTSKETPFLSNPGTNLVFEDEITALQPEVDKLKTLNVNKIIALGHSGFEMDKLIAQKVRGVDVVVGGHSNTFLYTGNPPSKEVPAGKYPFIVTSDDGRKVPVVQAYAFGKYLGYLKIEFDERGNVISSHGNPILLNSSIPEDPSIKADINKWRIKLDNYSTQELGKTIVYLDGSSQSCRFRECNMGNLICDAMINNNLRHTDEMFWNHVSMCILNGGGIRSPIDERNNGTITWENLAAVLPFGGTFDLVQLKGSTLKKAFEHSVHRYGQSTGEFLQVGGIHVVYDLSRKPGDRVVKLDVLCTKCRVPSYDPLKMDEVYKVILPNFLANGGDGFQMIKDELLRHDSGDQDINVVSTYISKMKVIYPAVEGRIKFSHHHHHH
Protocol: (§1) The binding off-rate constants of bivalent hcAbs to human and mouse CD73 protein were determined by […] kinetic analysis on Octet RED96 (ForteBio). Immobilization of rabbit IgG hcAbs on the protein A-biosensor surface was done in HEK-6E cell supernatant, and regeneration of analytes was done with 100 mM Glycin pH=2.5. Recombinant mouse or human CD73 ectodomain was used as analytes and tested at a saturating dose of 200 ng/μl. Sensorgrams were fitted using least square regression in association than dissociation Model in Prism8 (Graphpad).

[2] = target: T2, mouse CD73 on transfected HEK cells (mouse, UniProt Q61503 29-551); assay: specificity column, binding to human (h) and mouse (m) CD73
T2 construct: whole, on cells; also called murine CD73; gene ID 23959
T2 sequence (looked up): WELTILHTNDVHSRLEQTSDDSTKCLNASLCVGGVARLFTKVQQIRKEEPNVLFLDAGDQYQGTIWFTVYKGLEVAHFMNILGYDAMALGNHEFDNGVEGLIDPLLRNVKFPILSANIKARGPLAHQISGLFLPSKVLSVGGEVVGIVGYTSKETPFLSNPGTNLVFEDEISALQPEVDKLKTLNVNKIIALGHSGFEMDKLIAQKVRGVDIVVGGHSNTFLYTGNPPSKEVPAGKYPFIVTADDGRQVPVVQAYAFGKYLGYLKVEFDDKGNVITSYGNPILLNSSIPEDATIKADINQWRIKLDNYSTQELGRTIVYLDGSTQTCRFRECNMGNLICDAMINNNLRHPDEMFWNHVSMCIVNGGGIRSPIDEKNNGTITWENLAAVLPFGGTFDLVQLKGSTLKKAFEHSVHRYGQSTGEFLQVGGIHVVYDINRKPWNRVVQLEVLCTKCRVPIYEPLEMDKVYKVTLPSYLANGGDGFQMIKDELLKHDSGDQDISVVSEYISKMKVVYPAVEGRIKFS
Protocol: (§2) The binding specificities of the purified hcAbs were determined by flow cytometry using HEK cells transiently co-transfected with expression vectors for GFP and either mouse CD73, human CD73 or a control protein (CD39). 1×10⁶ cells were incubated with 10 μl of the Nb-rbIgG hcAb containing HEK-6E cell supernatants for 30 min at 4° C. […] The cells were resuspended in PBS and analyzed by flow cytometry on FACS Canto or FACS Celesta (BD Biosciences, Heidelberg). Data evaluation was conducted using the software FlowJo (Treestar, Stanford, US).

[3] = target: T3, human CD73 on cells (CD73-transfected HEK cells; native on PBMCs; OCI-AML3 cells) (human, UniProt P21589 27-549); assay: flow cytometry, human CD73-expressing cells; competitor: human IgG hcAb SB139
T3 construct: also called NT5E; gene ID 4907
T3 sequence: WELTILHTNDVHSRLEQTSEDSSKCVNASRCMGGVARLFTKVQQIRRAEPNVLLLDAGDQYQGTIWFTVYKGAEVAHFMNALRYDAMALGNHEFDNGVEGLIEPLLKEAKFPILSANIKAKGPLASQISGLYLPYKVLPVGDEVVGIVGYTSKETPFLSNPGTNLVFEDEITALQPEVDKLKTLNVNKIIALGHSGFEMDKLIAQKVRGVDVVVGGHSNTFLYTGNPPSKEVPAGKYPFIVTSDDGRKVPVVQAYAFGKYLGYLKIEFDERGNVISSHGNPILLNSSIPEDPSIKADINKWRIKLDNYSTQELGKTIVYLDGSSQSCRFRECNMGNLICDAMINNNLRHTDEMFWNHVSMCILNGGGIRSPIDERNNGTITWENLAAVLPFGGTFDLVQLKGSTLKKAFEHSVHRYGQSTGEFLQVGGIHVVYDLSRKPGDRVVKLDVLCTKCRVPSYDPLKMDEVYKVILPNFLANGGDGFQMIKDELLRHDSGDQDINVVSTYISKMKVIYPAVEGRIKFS
Protocol: as §2
(§3) To evaluate the epitopes on the CD73 protein recognized by different VHHs, representative rabbit IgG hcAbs were binned against a set of human IgG hcAbs, and bound hcAbs were detected with a PE-conjugated anti-rabbit IgG secondary antibody. Cells were pre-incubated with excess human IgG hcAbs for […] at RT to block specific epitopes before addition of rabbit IgG hcAbs as detectors and further incubation for 15 min at RT. Cells were washed, and bound antibodies were detected with PE-conjugated anti-rabbit IgG polyclonal antibody. Cells were washed and analyzed by flow cytometry on a BD-FACS Canto. Data were analyzed using the FlowJo software (Treestar). Lack of blockade by a non-binding control human IgG hcAb served as negative control (unblocked), and blockade of binding with the same VHH carrying human IgG hcAb as the rabbit IgG hcAb used for detection served as positive controls for blocking. Values for blocking were determined by comparing the mean fluorescence intensities (MFIs) of PE staining of transfected cells for unblocked vs blocked rabbit hcAbs using the formula: inhibition (%)=100−(MFI (blocked)/MFI MFI(unblocked)*100). The values were rounded to whole percentages.

[4] = target: T3, human CD73 on cells (CD73-transfected …); assay: flow cytometry, human CD73-expressing cells; competitor: human IgG hcAb SB121
Protocol: as §2, §3

[5] = target: T3, human CD73 on cells (CD73-transfected …); assay: flow cytometry, human CD73-expressing cells; competitor: MEDI9447
Protocol: as §2, §3

[6] = target: T3, human CD73 on cells (CD73-transfected …); assay: flow cytometry, human CD73-expressing cells; competitor: human IgG hcAb SB143
Protocol: as §2, §3

[7] = target: T3, human CD73 on cells (CD73-transfected …); assay: flow cytometry, human CD73-expressing cells; competitor: human IgG hcAb SB116
Protocol: as §2, §3

[8] = target: T3, human CD73 on cells (CD73-transfected …); assay: flow cytometry, human CD73-expressing cells; competitor: human IgG hcAb SB96
Protocol: as §2, §3

[9] = target: T3, human CD73 on cells (CD73-transfected …); assay: flow cytometry, human CD73-expressing cells; competitor: human IgG hcAb SB141
Protocol: as §2, §3

[10] = target: T3, human CD73 on cells (CD73-transfected …); assay: flow cytometry, human CD73-expressing cells; competitor: IPH5301
Protocol: as §2, §3

soluble human CD73 = target: T4, soluble human CD73 (Homo sapiens, UniProt P21589); assay: Off-rates of soluble CD73 from immobilized Nb-rbIgG hcAb on Octet BLI; type: binding; conditions: soluble human CD73 ectodomain 200 ng/μl as analyte; Nb-rbIgG hcAb immobilized on protein A biosensor
T4 construct: The ectodomain of CD73 (aa 27-549) was expressed as a recombinant protein with a C-terminal His6× tag; His6 (C); made in house; host or cells: transiently transfected HEK cells
T4 sequence (P21589 27-549): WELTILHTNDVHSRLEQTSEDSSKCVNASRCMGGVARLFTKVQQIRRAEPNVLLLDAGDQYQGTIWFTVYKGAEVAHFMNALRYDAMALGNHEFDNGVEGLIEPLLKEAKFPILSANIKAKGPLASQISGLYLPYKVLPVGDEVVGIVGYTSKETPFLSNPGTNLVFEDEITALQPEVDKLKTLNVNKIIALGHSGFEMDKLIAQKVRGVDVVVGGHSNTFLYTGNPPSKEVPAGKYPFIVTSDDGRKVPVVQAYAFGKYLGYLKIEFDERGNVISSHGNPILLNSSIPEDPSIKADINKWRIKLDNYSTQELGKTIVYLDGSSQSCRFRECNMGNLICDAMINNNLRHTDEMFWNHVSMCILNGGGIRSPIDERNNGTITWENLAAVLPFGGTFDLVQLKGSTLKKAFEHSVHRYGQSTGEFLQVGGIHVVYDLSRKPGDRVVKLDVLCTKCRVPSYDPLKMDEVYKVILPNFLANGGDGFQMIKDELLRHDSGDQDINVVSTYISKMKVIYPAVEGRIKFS
Protocol: as §1

human CD73 = target: T5, human CD73 (Homo sapiens, UniProt P21589); assay: Flow cytometry binding of rabbit IgG hcAbs to human CD73-transfected HEK cells; conditions: family representative clone; h = binds human CD73, m = binds mouse CD73
T5 construct: expressed in transfected cells; stably transfected in method 5.1)
T5 sequence (P21589 27-549): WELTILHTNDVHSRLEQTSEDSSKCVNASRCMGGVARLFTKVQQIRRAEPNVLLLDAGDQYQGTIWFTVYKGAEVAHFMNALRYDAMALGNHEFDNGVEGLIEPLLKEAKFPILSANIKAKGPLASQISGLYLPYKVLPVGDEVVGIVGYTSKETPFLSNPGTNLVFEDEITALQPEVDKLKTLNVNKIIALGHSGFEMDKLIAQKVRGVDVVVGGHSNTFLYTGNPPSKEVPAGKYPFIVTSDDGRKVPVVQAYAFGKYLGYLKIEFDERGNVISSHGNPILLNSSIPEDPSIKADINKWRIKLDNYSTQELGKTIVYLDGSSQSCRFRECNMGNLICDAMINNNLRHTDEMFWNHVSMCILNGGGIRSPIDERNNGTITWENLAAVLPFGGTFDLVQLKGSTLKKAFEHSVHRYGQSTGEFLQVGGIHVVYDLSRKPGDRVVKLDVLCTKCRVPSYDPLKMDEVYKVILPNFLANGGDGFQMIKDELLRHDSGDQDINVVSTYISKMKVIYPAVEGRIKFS
Protocol: HEK cells were co-transfected with expression vectors for green fluorescent protein (GFP) and human CD73, mouse CD73, and a control cell surface protein (CD39). 48 h after transfection, cells were incubated with HEK cell supernatants containing the indicated rabbit IgG hcAbs. Bound antibodies were detected with PE-conjugated anti rabbit IgG secondary antibody.
• 5.1 Untransfected HEK293 cells and HEK293 cells stably transfected with human or mouse CD73 were incubated for 30 min with HEK-6E cell supernatants containing rabbit IgG hcAbs (diluted 1:10 in PBS/0.1% BSA). Following washing with PBS/0.1% BSA, bound antibodies were detected with PE-conjugated goat anti-rabbit IgG polyclonal antibody (711-116-152 Dianova, Hamburg). • 5.2 For dissociation analyses, two separate aliquots of CD73-transfected cells were incubated either with Cell Proliferation Dye eFluor 450 (eBioscience) or with hcAbs for 20 min at RT. Cells were washed four times, mixed at a 1:1 ratio and further incubated at RT for 120 min before staining of bound antibodies with PE-conjugated goat anti-rabbit IgG polyclonal antibody. The dissociation of hcAbs from the target cells and association with the eFluor 450 labeled cells was analyzed by flow cytometry using the FlowJo software (Treestar). • 5.3 For epitope analyses, cells were preincubated with excess human IgG hcAbs (10 μl HEK-6E cell supernatant/100 μl PBS/0.1% BSA) for 30 min at RT before addition of Nb-rabbit IgG hcAbs (1 μl HEK-6E cell supernatant/100 μl PBS/0.1% BSA) and further incubation for 20 min at RT and staining with PE-conjugated anti-rabbit polyclonal antibody (711-116-152 Dianova, Hamburg). Cells were washed and analyzed by flow cytometry on a BD-FACS Canto. Data were analyzed using the FlowJo software (Treestar).
The binding specificities of the purified hcAbs were determined by flow cytometry using HEK cells transiently co-transfected with expression vectors for GFP and either mouse CD73, human CD73 or a control protein (CD39). 1×10^6 cells were incubated with 10 μl of the Nb-rbIgG hcAb containing HEK-6E cell supernatants for 30 min at 4° C. After washing, the cells were incubated with PE-conjugated anti-rabbit IgG polyclonal antibody (711-116-152 Dianova, Hamburg) and washed twice. The cells were resuspended in PBS and analyzed by flow cytometry on FACS Canto or FACS Celesta (BD Biosciences, Heidelberg). Data evaluation was conducted using the software FlowJo (Treestar, Stanford, US).

B1: SB139 rabbit IgG hcAb (Fc fusion)
heavy: QVQLQESGGGLVQAGGSLRLSCAASENIFNIYGMGWYRQAPGKLRDLVAKITSGGRTTYADSVKGRFTISGDNAKNTVYLQMNSLKPEDTAVYYCNSYYYWGQGTQVTVSS
notes: not shown: hinge and Fc-domains of rabbit IgG
- koff [1]: 0.046 s⁻¹
- binding result [2]: binds
- percent inhibition of binding [3]: 50%
- percent inhibition of binding [4]: 3%
- percent inhibition of binding [5]: 73%
- percent inhibition of binding [6]: 77%
- percent inhibition of binding [7]: 75%
- percent inhibition of binding [8]: 76%
- percent inhibition of binding [9]: 47%
- percent inhibition of binding [10]: 66%

B2: SB139: CD73-specific alpaca VHH clone, family 6, SEQ ID NO:83; tested as rabbit or human IgG hcAb (antibody)
heavy: QVQLQESGGGLVQAGGSLRLSCAASENIFNIYGMGWYRQAPGKLRDLVAKITSGGRTTYADSVKGRFTISGDNAKNTVYLQMNSLKPEDTAVYYCNSYYYWGQGTQVTVSS
modifications: left off: a dimerising Fc or GST
notes: tested as rabbit or human IgG hcAb
- Kdis (soluble human CD73): 0.046 s⁻¹
- specificity (human CD73): h + m
